# US20200353078A1 (AstraZeneca / MedImmune, published 2020)
# T1: Endogenous human IL-33 (human, UniProt O95760 1-270, limits assumed)
# T1 sequence (looked up): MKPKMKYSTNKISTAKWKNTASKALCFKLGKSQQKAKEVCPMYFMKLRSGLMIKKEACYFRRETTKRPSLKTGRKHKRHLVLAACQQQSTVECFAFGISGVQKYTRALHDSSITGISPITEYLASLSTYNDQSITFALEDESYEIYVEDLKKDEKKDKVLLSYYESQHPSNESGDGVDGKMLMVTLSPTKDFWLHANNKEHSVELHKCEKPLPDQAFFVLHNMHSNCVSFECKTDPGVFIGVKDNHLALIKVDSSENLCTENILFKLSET
# T2: Full-length human IL-33 (amino acids 1-270), HEK293-EBNA cell lysate (human, UniProt O95760 1-270)
# T2 sequence (looked up): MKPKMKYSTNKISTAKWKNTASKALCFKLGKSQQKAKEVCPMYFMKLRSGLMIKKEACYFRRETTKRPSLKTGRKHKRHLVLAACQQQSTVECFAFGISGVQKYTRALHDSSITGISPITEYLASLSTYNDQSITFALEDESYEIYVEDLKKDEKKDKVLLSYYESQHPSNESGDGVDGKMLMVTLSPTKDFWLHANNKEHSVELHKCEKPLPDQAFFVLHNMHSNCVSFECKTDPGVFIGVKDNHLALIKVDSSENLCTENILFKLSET
# T3: Human IL-33 (Axxora/Adipogen AG-40B-0038) (human, UniProt O95760 112-270, limits assumed)
# T3 sequence (looked up): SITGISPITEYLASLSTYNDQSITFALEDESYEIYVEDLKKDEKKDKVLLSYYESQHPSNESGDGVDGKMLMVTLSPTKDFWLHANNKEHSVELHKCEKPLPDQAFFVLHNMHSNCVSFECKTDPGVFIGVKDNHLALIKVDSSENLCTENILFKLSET
# What was measured:
# [1] = biological target: T1, Endogenous human IL-33; experiment: cell-based or functional assay
# [2] = biological target: T2, Full-length human IL-33 (amino acids …); experiment: cell-based or functional assay
# [3] = biological target: T3, Human IL-33 (Axxora/Adipogen …); experiment: cell-based or functional assay
# [4] = biological target: T3, Human IL-33 (Axxora/Adipogen …); experiment: HTRF epitope competition: unlabelled IgG against DyLight labelled H338L293 for biotinylated human IL-33
Binder,"IC50, Huvec IL-8 release stimulated by human lung lysate [1]","IC50, Huvec IL-8 assay vs. full length IL-33 cell lysate [2]","Huvec IL-6 production, maximum inhibition [3]","Mast cell IL-6 production, inhibition [3]",IC50 (read off the curve) [4]
"Human ST2-Fc (R&D Systems, or source not stated in the example) (Fc fusion, UniProt Q01638 19-328, looked up, not shown: a dimerising Fc or GST) KFSKQSWGLENEALIVRCPRQGKPSYTVDWYYSQTNKSIPTQERNRVFASGQLLKFLPAAVADSGIYTCIVRSPTFNRTGYANVTIYKKQSDCNVPDYLMYSTVSGSEKNSKIYCPTIDLYNWTAPLEWFKNCQALQGSRYRAHKSFLVIDNVMTEDAGDYTCKFIHNENGANYSVTATRSFTVKDEQGFSLFPVIGAPAQNEIKEVEIGKNANLTCSACFGKGTQFLAAVLWQLNGTKITDFGEPRIQQEEGQNQSFSNGLACLDMVLRIADVKEEDLLLQYDCLALNLHGLRRHTVRLSRKNPIDHHS",0.019 nM,0.67 nM,,,
"IL330388 IgG1 (antibody, V domains shown, IgG1; also called IL3300388) VH: EVQLLESGGGLVQPGGSLRLSCAASGFTFSSYAMSWVRQAPGKGLEWVSASTPWQGSTYYADSVKGRFTISRDNSKNTLYLQMNSLRAEDTAVYYCVRWYWGWIDSWGRGTLVTVSS VL: SYVLTQPPSVSVSPGQTARITCSGDALPKQYAHWYQQKPGQAPALVIYKDTERPSGIPERFSGSSSGTTVTLTISGVQAEDEADYYCMSSDPSGASRVFGGGTKVTVL",,,~70%,100%,~1 nM
